From patent publication US7968692B2, “Elongase genes and uses thereof” (Abbott Laboratories, priority 1998, dated 2011)

Tests used:
Type in all cases: cell-based, Saccharomyces cerevisiae
S. cerevisiae 334 [1] = test: C. elegans elongase CEELO1 activity in yeast
Experimental: The plasmids pRET-21 and -22 were transformed into S. cerevisiae 334 as previously described (see Example III) and the resulting yeast cultures (334(pRET-21) and 334(pRET-22)) grown in 100 ml of selective media without leucine (Ausubel et al, supra) for 48 hours at 20° C. in the presence of 50 μM GLA and AA. […] The percent conversion of GLA to DGLA by 334(pRET-21) and 334(pRET-22) was 11.1% and 19.4% respectively with an average of 15.25%.
To further confirm the GLA elongation activity of CEELO1, the experiment described in the paragraphs above was repeated with the exception that GLA and AA were added to cultures of 334(pRET-22) separately. […] In this case, the percent conversion appears to be double that described in previous results (see FIG. 48) and may either be due to the absence of the additional substrate (AA) or the subculturing of the yeast.
Additionally, to further determine the substrate specificity of CEELO1, 50 μM of each substrate besides GLA (e.g., SA (18:0), OA (18:1), LA (18:2n-6), DGLA (20:3n-g), AA ([…]), ADA (22:4n-6), ALA (18:3n-3), PA ([…]), EPA (20:5n-3) and STA ([…])) was added individually to cultures of 334(pRET-22) and grown for 48 hours at 20° C., as described in Example XVII. […] The CEELO1 elongated 13% of STA incorporated to ETA (20:4n-3)(see FIG. 62).

yeast = test: Co-expression of CEELO1 and M. alpina Δ5 desaturase in yeast; settings: pRET22 and pCGR4 co-expressed, FIG. 63
Experimental: Parallel to Examples III and XI, the C. elegans CEELO1 gene in the plasmid pRET22 and M. alpina Δ5 desaturase (pCGR-4; see Example III) were co-expressed in yeast to determine if AA or EPA could be produced from exogenously added GLA or STA, respectively. When a yeast culture containing both pRET22 and pCGR4 plasmids was grown in the presence of 50 μM GLA or STA in media lacking leucine and uracil, the percent conversion to the final products of AA and EPA, respectively, appeared identical (27% conversion)(see FIG. 63). Thus, simultaneous heterologous expression of CEEL01 and a Δ5 desaturase results in the biosynthesis of AA and EPA from GLA and STA, respectively in yeast.

S. cerevisiae 334 [2] = test: Expression of M. alpina elongase (MAELO) cDNA in baker's yeast, GC-FAME analysis of lipid fraction; settings: substrate GLA; 40-48 hours at 25° C.
Source text: The constructs pRAE-5, and pRAE-6 were transformed into S. cerevisiae 334 (Hoveland et al., Gene 83:57-64 (1989)) and screened for elongase activity. The plasmid pCGN7875 (Calgene LLC, Davis, Calif.) containing jojoba KCS gene in pYES2 vector (Invitrogen Corp., Carlsbad, Calif.) was used as a positive control. The substrate used to detect elongase activity in M. alpina elongase (MAELO) was GLA and that in jojoba KCS was oleic acid (OA). The negative control strain was S. cerevisiae 334 containing pYX242 vector. The cultures were grown for 40-48 hours at 25° C., in selective media (Ausubel et al., Short Protocols in Molecular Biology, Ch. 13, p. 3-5 (1992)), in the presence of a particular substrate. The expression of the jojoba KCS gene cloned in pYES2 was under the control of GAL1 promoter, while the promoter in pYX242 is TP1, which is constitutive. […] The GC-FAME analysis of the lipid fraction of each cell pellet was performed as previously described (Knutzon et al., supra).
The jojoba KCS elongates long chain monounsaturated fatty acids 18:1n-9 to 20:1n-9. […] The activity of the M. alpina elongase, elongation (MAELO) of long chain monounsaturated and saturated fatty acids, is seen in the conversion of 18:1n-9 to 20:1n-9 and also in the synthesis of 24:0. The control strain, 334(pYX242) has very little or no detectable amount of 20:1 and 24:0 (see FIG. 10A). […]

S. cerevisiae 334 [3] = test: MAELO co-expressed with Δ5-desaturase (pCGR-4) in yeast, AA production; settings: 25 μM GLA; pRAE-5 and pCGR-4 co-transformed; FIG. 11
Experimental: Once 20:3n-6 is generated by the M. alpina elongase (MAELO), the Δ5-desaturase can convert it to AA in the desired expression system. To test this hypothesis, the constructs pRAE-5 and pCGR-4 (a Δ5-desaturase containing plasmid) were co-transformed into S. cerevisiae 334 and screened for AA production. The substrate used was 25 μM GLA (18:3n-6). If the M. alpina elongase (MAELO) is active in yeast, then the substrate will be converted to DGLA(20:3n-6), which the Δ5-desaturase will convert to AA(20:4n-6).

S. cerevisiae 334 [4] = test: Comparison of MAELO and S. cerevisiae ELO2 PUFA elongase activity in baker's yeast; settings: 25 μM GLA
Source text: The ELO2 gene encoding for the yeast elongase was cloned from an S. cerevisiae genomic library (Origene, Rockville, Md.) using the primers RO514 (SEQ ID NO: 94) (5′-GGCTATGGATCCATGAATTCACTCGTTACTCAATATG-3′) and RO515 (SEQ ID NO: 95)(5′-CCTGCCAAGCTTTTACCTTTTTCTTCTGTGTTGAG-3′) incorporating the restriction sites (underlined) BamHI and HindIII (respectively). The ELO2 gene was cloned into the vector pYX242 at the BamHI and HindIII sites, designated pRELO, transformed into the S. cerevisiae host 334 (Hoveland et al., supra) and screened for PUFA elongase activity. The vector plasmid was used as a negative control and 334(pRAE-5) was grown to compare the PUFA elongase activity. The cultures were grown as previously described with no galactose in the media and 25 μM GLA added as a substrate. […] Additionally, when DGLA produced is expressed as a percent of the total lipids (shown in parenthesis, FIG. 12), the clones 334(pRELO-1) and 334 (pRELO-2) produced 0.153% and 0.2% DGLA respectively, while 334(pYX242) produced 0.185% DGLA. […] The M. alpina PUFA elongase activity is specific for this conversion as evidenced by the higher amount of DGLA produced compared to the control, 334(pYX242).

SC334 = test: MAD (M. alpina direct) cDNA expression library screening in yeast, GLA to DGLA
Experimental: To screen the library, the glycerol stocks were thawed and approximately 0.5 ml was added to 5 ml of liquid selective media lacking uracil (Ausubel et al., supra) and grown at 30° C. for 24 hours. The culture was then transferred into 50 ml of liquid selective medium lacking uracil with 2% galactose and 25 (D)M GLA (substrate for the elongase enzyme) for 24 hours at 25° C. with shaking. The GC-FAME analysis of the lipid content in the cell pellet of each induced culture was performed as previously described (Knutzon et al., supra). The MAELO (pRAE-5 in pYX242 grown in selective media lacking leucine) was used as a positive control in each batch run. MAELO had consistently been able to convert 1.5% of GLA to DGLA (see Example III).
After screening and analyzing approximately 750 individual pools by GC-FAME analysis, as described in Example VIII, one pool of five colonies (i.e., MAD708) appeared to have significant enzymatic activity in converting GLA to DGLA. […] This pool was tested again under identical assay conditions to confirm the initial findings. […] Since MAD708 was a pool of five different clones, it was necessary to isolate the individual cDNA clone which encoded for elongase activity from this pool. To do this, the original MAD708 glycerol stock was plated onto a selective media agar plate lacking uracil (Ausubel et al., supra). […]

[5] = 50 μM GLA and AA together, 48 hours at 20° C., FIG. 48
[6] = GLA and AA added separately, FIG. 61

Row | Molecule | DGLA, average of the total lipid in the two samples (S. cerevisiae 334 [1]; [5]) | percent conversion of GLA to DGLA (S. cerevisiae 334 [1]; [5]) | elongation of AA or any endogenous fatty acid (S. cerevisiae 334 [1]; 50 μM GLA and AA together, FIG. 48) | STA incorporated elongated to ETA (20:4n-3) (S. cerevisiae 334 [1]; 50 μM STA, 48 hours at 20° C., FIG. 62) | elongation of other exogenously added substrates (SA, OA, LA, DGLA, AA, ADA, ALA, PA, EPA, STA) (S. cerevisiae 334 [1]; 50 μM of each substrate individually, FIG. 62) | conversion rate of GLA to DGLA (S. cerevisiae 334 [1]; [6]) | elongation activity of AA (S. cerevisiae 334 [1]; [6]) | average percent conversion of GLA to DGLA (S. cerevisiae 334 [1]; average of 334(pRET-21) and 334(pRET-22), 50 μM GLA and AA together) | conversion rate of endogenous 16:1n-7 to 18:1n-7 (S. cerevisiae 334 [1]; endogenous substrate) | percent conversion of GLA to final product AA (yeast; 50 μM GLA) | percent conversion of STA to final product EPA (yeast; 50 μM STA) | percentage of 20:3n-6 in total lipid (S. cerevisiae 334 [2]) | total amount of 20:3n-6 produced (S. cerevisiae 334 [2]) | AA production (S. cerevisiae 334 [3]) | increase of percent DGLA over 334(pYX242) (negative control) (S. cerevisiae 334 [4]) | DGLA produced as a percent of the total lipids (S. cerevisiae 334 [4]; FIG. 12) | amount of 20:3n-6 or DGLA produced relative to negative control pYX242 (S. cerevisiae 334 [4]; FIG. 12) | conversion of GLA to DGLA (SC334; individual clones of MAD708 pool, FIG. 20) | conversion of GLA to DGLA (SC334; positive control in each batch run of library screening)
1 | CEELO1: C. elegans elongase (SEQ ID NO:4), 288 amino acids, expressed in yeast from pRET-22 (protein, Caenorhabditis elegans) MAQHPLVQRLLDVKFDTKRFVAIATHGPKNFPDAEGRKFFADHFDVTIQASILYMVVVFGTKWFMRNRQPFQLTIPLNIWNFILAAFSIAGAVKMTPEFFGTIANKGIVASYCKVFDFTKGENGYWVWLFMASKLFELVDTIFLVLRKRPLMFLHWYHHILTMIYAWYSHPLTPGFNRYGIYLNFVVHAFMYSYYFLRSMKIRVPGFIAQAITSLQIVQFIISCAVLAHLGYLMHFTNANCDFEPSVFKLAVFMDTTYLALFVNFFLQSYVLRGGKDKYKAVPKKKNN | 1.79% | 19.4% | almost no elongation | 13% | STA was the only exogenously added substrate that was elongated | 38.2% | No elongation activity of AA was detected | 15.25% | 9.12% | 27% | 27% |  |  |  |  |  |  |  | 
2 | MAELO: Mortierella alpina elongase encoded by MAELO cDNA (SEQ ID NO:1), expressed in S. cerevisiae 334 from pRAE-5 (protein, listed as Mortierella alpina) MAAAILDKVNFGIDQPFGIKLDTYFAQAYELVTGKSIDSFVFQEGVTPLSTQREVAMWTITYFVVIFGGRQIMKSQDAFKLKPLFILHNFLLTIASGSLLLLFIENLVPILARNGLFYAICDDGAWTQRLELLYYLNYLVKYWELADTVFLVLKKKPLEFLHYFHHSMTMVLCFVQLGGYTSVSWVPITLNLTVHVFMYYYYMRSAAGVRIWWKQYLTTLQIVQFVLDLGFIYFCAYTYFAFTYFPWAPNVGKCAGTEGAALFGCGLLSSYLLLFINFYRITYNAKAKAAKERGSNFTPKTVKSGGSPKKPSKSKHI |  |  |  |  |  |  |  |  |  |  |  | 0.324% | 2.504 µg | confirm the production of AA | 50.8% | 0.279% | approximately 4 times | 3.4% | 1.5%
